For test [1], the target named is LHCGR A57T mutant (human) (UniProt P22888).
Test [2] deals with LHCGR E270V mutant (human) (UniProt P22888).
In test [3] the target is LHCGR I83S mutant (human) (UniProt P22888).
The target in test [4] is LHCGR K225S + T226I mutant (human) (UniProt P22888).
In test [5] the target is LHCGR N35D + V37A mutant (human) (UniProt P22888).
Test [6] deals with LHCGR R247T mutant (human) (UniProt P22888).
In test [7] the target is LHCGR S149F mutant (human) (UniProt P22888).
Test [8] concerns the target LHCGR T48R mutant (human) (UniProt P22888).
The target of test [9] is human luteinizing hormone (LH)/chorionic gonadotropin (hCG) receptor (LHCGR), wild type (human) (UniProt P22888).
The target of test [10] is LHCGR A57T mutant (human) (UniProt P22888). The source holds these as a separate data set.
Test [11] deals with LHCGR E270V mutant (human) (UniProt P22888). The source holds these as a separate data set.
The target in test [12] is LHCGR I83S mutant (human) (UniProt P22888). This is another data set of the same source.
Test [13] concerns the target LHCGR K225S + T226I mutant (human) (UniProt P22888). The source holds these as a separate data set.
The target of test [14] is LHCGR N35D + V37A mutant (human) (UniProt P22888). This is another data set of the same source.
The target of test [15] is LHCGR R247T mutant (human) (UniProt P22888). The source holds these as a separate data set.
Test [16] has as its target LHCGR S149F mutant (human) (UniProt P22888). This is another data set of the same source.
Test [17] deals with LHCGR T48R mutant (human) (UniProt P22888). The source holds these as a separate data set.
Test [18] deals with human luteinizing hormone (LH)/chorionic gonadotropin (hCG) receptor (LHCGR), wild type (human) (UniProt P22888). The source holds these as a separate data set.

On to “recombinant human chorionic gonadotropin (hCG) (from UniProt P01215 25-116; P0DN86 21-165) (ligand)”, for which the hCG EC50 (pM) of cAMP increase, BRET (CAMYEL biosensor) in transfected HEK293 cells, 1 pM–100 nM hCG, 30 min in test [1] is 153 pM; in test [2], 248 pM; in test [3], 127 pM; in [4], 194 pM; in test [5], 94.5 pM; in test [6] it was 386 pM. Besides, the hCG EC50 (pM) of cAMP increase, BRET (CAMYEL biosensor) in transfected HEK293 cells, 1 pM–100 nM hCG, 30 min in test [7] was determined as 111 pM; in [8] it was 130 pM; in [9], 143 pM. In addition, the hCG AUC of the pERK1/2 activation kinetics, BRET (REV biosensor) in transfected HEK293 cells, 100 pM hCG (relative units) in test [10] came out at 20.5; in [11], 7.18; in test [12] it was 6.65; in [13] it was 9.47; in test [14] it was 8.19; in test [15], 15.4. Also, the hCG AUC of the pERK1/2 activation kinetics, BRET (REV biosensor) in transfected HEK293 cells, 100 pM hCG (relative units) in test [16] amounted to 13.9; in test [17] it was 13.4; in test [18], 7.98.
Turning to “recombinant human luteinizing hormone (LH) (from UniProt P01215 25-116; P01229 21-141) (ligand)”, the LH EC50 (pM) of cAMP increase, BRET (CAMYEL biosensor) in transfected HEK293 cells, 1 pM–100 nM LH, 30 min came to 703 pM in test [1]; 2810 pM in [2]; 712 pM in test [3]; 698 pM in [4]; 595 pM in test [5]; 556 pM in test [6]. Besides, the LH EC50 (pM) of cAMP increase, BRET (CAMYEL biosensor) in transfected HEK293 cells, 1 pM–100 nM LH, 30 min in [7] was found to be 756 pM; in test [8], 1210 pM; in test [9] it was 1110 pM. The LH AUC of the pERK1/2 activation kinetics, BRET (REV biosensor) in transfected HEK293 cells, 100 pM LH (relative units) in test [10] amounted to 10.9; in [11], 10.9; in test [12] it was 8.03; in [13], 11.4; in test [14] it was 5.48; in [15], 10.5. Moreover, the LH AUC of the pERK1/2 activation kinetics, BRET (REV biosensor) in transfected HEK293 cells, 100 pM LH (relative units) in test [16] came out at 10.4; in [17] it was 12.3; in [18] it was 13.9.
